# Literature values, collected in publication PMC4543363.
# Assays:
# NF-κB p50 (Homo sapiens) = NF-κB p50 (Homo sapiens) (UniProt P19838)
# [1] = target: NF-κB dimer (Homo sapiens) (UniProt P19838)
Kd (NF-κB p50 (Homo sapiens)) [nM],Kd [1] [nM],Substance
100,,NF-κB p65 (from UniProt Q04206)
,< 0.1,IκBα (from UniProt P25963)
